Patent publication US11945858B2, “Antibodies and antibody fragments against HNAV1.7 channel and their use in pain and cancer indications” (NATIONAL RESEARCH COUNCIL OF CANADA, priority 2018, dated 2024)
Entries after “also recorded” stand apart in the source; their conditions may differ.

Key:
[1] = test system: FC5DIIIDIR (extracellular loop DIII of the hNav1.7 channels grafted to FC5 scaffold); test: Phage ELISA on FC5DIIIDIR; assay type: binding, human
[2] = test system: FC5; test: Surface Plasmon Resonance for VHH antibodies, immobilized FC5; assay type: binding; details: SPR; 25 C
Chain of FC5 (as listed by the source): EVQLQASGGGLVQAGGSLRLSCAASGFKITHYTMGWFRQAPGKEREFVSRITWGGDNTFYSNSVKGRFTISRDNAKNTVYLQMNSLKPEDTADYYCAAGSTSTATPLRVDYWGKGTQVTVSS
Description: (§1) Surface Plasmon Resonance for VHH antibodies. For SPR experiments, IMAC-purified VHHs DI-D, DI-4, DI-16, DI-28 and DI-48 were passed through a Superdex 75 (GE Healthcare) column for SEC purification in HBS-EP+buffer (10 mM HEPES, pH 7.4, containing 150 mM NaCl, 3 mM EDTA and 0.05% P20), connected to an AKTAPurifier (GE Healthcare) at a flow rate of 1 ml/min. Monomeric VHH fractions were collected and protein concentration determined by measuring A280 measurement. Using a Biacore T200 instrument (GE Healthcare), approximately 500-1000 RUs of FC5DIE3IR, FC5 and an irrelevant VHH (2A3-H4) were immobilized on a CM5 Series S sensor chip (GE Healthcare) at pH 4.0 using standard amine coupling according to the manufacturer's instructions (GE Healthcare). […] Surfaces were regenerated by washing with a 120 s pulse of 10 mM glycine pH 1.5. Data were analyzed with Biacore T200 Software v 3.0 and affinities determined using steady state binding or a 1:1 binding model.

[3] = test system: VHH FC5; test: Phage ELISA on VHH FC5; assay type: binding
Chain of VHH FC5 (as listed by the source): as above
Description: FIG. 25A Phages were rescued from individual colonies, selected from the fourth round of panning and grown overnight at 37° C. Wells of a Nunc microtiter plate were coated with FC5DIE3IR and FC5 proteins at 5 μg/ml in PBS. After blocking, 100 μl of phage supernatants (from clones A-H) were added to the respective wells followed by incubation for 1 h at room temperature and addition of anti-M13-HRP conjugate. Binding was detected with TMB substrate and A450 was measured using an ELISA plate reader. As shown, six positive clones (DI-A, DI-B, DI-C, DI-D, DI-E and DI-H), having a signal of at least 3× background, were identified by phage-ELISA.
Additional rounds (up to 3) of panning were performed by coating the ELISA plate with the same proteins and using the amplified phages after each round of panning as described above. After four rounds of panning, 77 randomly picked colonies were grown and subjected to monoclonal phage ELISA screening as described previously (Arbabi-Ghahroudi et al., 2009) except that 5 μg/ml of FC5DIE3IR and FC5 VHH (the negative control) were coated onto a microtiter plate. All positive clones specifically binding to FC5DIE3IR were sequenced and unique VHH sequences were selected for sub-cloning, large-scale expression, and purification. A total of 6 VHHs specific to FC5DIE3IR were isolated. […]

[4] = test system: 2A3-H4; test: Surface Plasmon Resonance for VHH antibodies, immobilized irrelevant VHH 2A3-H4; assay type: binding; details: SPR; 25 C
Description: as §1

[5] = target: T1, FC5DIE3IR (Homo sapiens, UniProt Q15858); test: Surface Plasmon Resonance for VHH antibodies, immobilized FC5DIE3IR; assay type: binding; details: SPR
T1 construct: The supernatant was collected and loaded on a 5 ml MabSelect™ SuRe™ column; made in house; host or cells: CHO-3E7 (transient, pTT5 vector), purified from supernatant
Description: as §1

[6] = test system: CFA-induced thermal hyperalgesia; test: Hargreaves Model of Hyperalgesia in rats; assay type: in vivo, rat; details: for Percentage of maximum possible effect (% MPE): 4 h (FIG. 27B)
Description: Hargreaves Model of Hyperalgesia in rats. Rats aged 4-6 weeks (weight range, 180-220 g) were used for intraplantar (ipl) administrations of various antibodies and evaluation of their efficacy in the Hargreaves model of inflammatory pain. Chronic inflammatory pain is induced by injecting a low volume (50 μl) of complete Freund's adjuvant (CFA; heat-killed M. tuberculosis—Sigma, St. Louis, Mo.—suspended in oil:saline 2:1 emulsion) into the right hind paw. The paw withdrawal latency in response to the application of a radiant stimulus onto the plantar surface of both right and left paw was measured using the plantar Analgesia Meter equipment for paw stimulation (IITC Life Science, Woodland Hills, Calif.). The time taken by the animal to respond by licking or flicking its paw is interpreted as positive response (paw withdrawal latency). After 48 h of the CFA injection, the baseline for latency paw withdrawal was measured and the mAbs tested. […] A cut-off time (20 sec) is established at the end of which the heat source shuts off automatically to avoid tissue damage. Animals were kept (randomized) one per cage and staff performing pain experiments are blinded to the content of injectable compounds. Percentage of maximum possible effect (% MPE) was calculated using the formula % MPE=(Test Latency−Baseline Latency)×100/(Cut-off−Baseline Latency).

[7] = test system: OD1-evoked Nav1.7-mediated spontaneous pain behaviours; assay type: in vivo, mouse; details: 50 μg VHH
[8] = target: hNav1.7 channels (Homo sapiens, UniProt Q15858, W1161R); test: Patch-clamp whole-cell recordings in hNav1.7-HEK293 cells; assay type: cell-based
[9] = −20 mV, after antibody application (1 μM)

B1: DI-D: anti-hNav1.7 VHH from phage-displayed LAC-M naïve library; SEQ ID NO: 38 (protein)
VHH: QVKLEESGGGLVQPGGSLKLSCVASGFAFSSAPMDWVRKAPGKDVEWLSTIESDQDHTIYYANSVKGRFTISRDDVQNILYLQMNDLKIEDTATYYCQKRGEKKTRGQGTQVTVSS
modifications: DI-D
[1]
  Binding of the phage to FC5DIIIDIR (in words): did not bind
[2]
  Binding to immobilized FC5 (comment, in words): trace amounts of binding; also recorded: Weak/residual binding
[3]
  Binding of the phage to VHH FC5 (in words): did not bind
[4]
  Binding to immobilized 2A3-H4 (comment, in words): No binding
[5]
  Binding to immobilized FC5DIE3IR (comment, in words): clear binding; also recorded: binds specifically
[6]; 50 μg intraplantar, 4 h
  Latency paw withdrawal: 8.36 ± 0.53 s
[6]; 50 μg intraplantar
  Percentage of maximum possible effect (% MPE): 21.59%±4.05
[6]; 100 μg intraplantar, 1 h
  Latency paw withdrawal: 13.35 ± 0.44 s
[6]; 100 μg intraplantar, 2 h
  Latency paw withdrawal: 11.40 ± 0.69 s
[6]; 100 μg intraplantar, 4 h
  Latency paw withdrawal: 11.78 ± 0.50 s
[6]; 100 μg intraplantar
  Percentage of maximum possible effect (% MPE): 45.19%±4.40
[7]
  Effect on spontaneous pain behaviours evoked by OD1 (in words): reversed spontaneous pain behaviours
[7]; injected 60 minutes prior to OD1, 20 min after the injection
  Time spent in pain behaviors (saline plus OD1 = 100%): 44.33%±8.8
[8]; 1 μM
  Reduction currents (%): 11.7%±5.8
  Time constant of the block of the hNav1.7 currents (effect onset): 113 ± 11 s
  Voltage-dependence of activation (shift V1/2 activation): −6.1±1.0 mV
  Voltage-dependence of the steady-state fast inactivation (shift V1/2 inactivation): −6.8±1.5 mV
[8]; 1 μM, 500 sec recording (FIG. 26B)
  hNav1.7 current remaining, % of control: approx. 91%
[8]; 1 μM, single time-course recording of the figure
  Onset time of the effect (exponential fit of the current decay, T): 150 s
[8]; 2 μM
  Reduction currents (%): 15.0%±6.9
  Time constant of the block of the hNav1.7 currents (effect onset): 200 ± 45 s
[8]; 3 μM
  Reduction currents (%): 24.1%±5.6
[8]; example recordings, 1-3 μM
  Effect on hNav1.7 currents (in words): reduced hNav1.7 current in a dose dependent manner
[8]; resting/closed state
  Efficacy (degree of maximum inhibition): 27.4±5. %
[8]; [9]
  Fast inactivation (time constant): 1.29 ± 0.30 ms
  Time-to-peak: 1.64 ± 0.37 ms
